Experimental findings from paper PMC7812809 (Proceedings of the National Academy of Sciences of the …, 2020) are described below.

Holding throughout (experiment): negative stain EM
The target in data set [1] is Dendra2 T69A-LdcI (N-terminal fluorescent protein fusion of LdcI) (not stated | E. coli) (UniProt P0A9H3).
The target of data set [2] is LdcI E445A/D447A/R468E triple mutant (E. coli) (UniProt P0A9H3).
The target in data set [3] is LdcI R97E/R468E double mutant (E. coli) (UniProt P0A9H3).
In data set [4] the target is LdcI-Dendra2 T69A (C-terminal fluorescent protein fusion of LdcI) (E. coli | not stated) (UniProt P0A9H3).
For data set [5], the target named is LdcI-mGeosM (C-terminal fluorescent protein fusion of LdcI) (E. coli | not stated) (UniProt P0A9H3).
The data set “negative stain EM” deals with the molecule itself.

Where a chain is given by its changes, count along the chain named. Numbers in names are those of the source.

Usually stoichiometry N stands for the number of molecules, sites or subunits per partner or assembly. “Dendra2 T69A-LdcI (N-terminal fluorescent protein fusion of LdcI) (from UniProt P0A9H3 1-715) (enzyme)” gave a stoichiometry N in data set [1] of 2.

Take “LdcI E445A/D447A/R468E triple mutant (from UniProt P0A9H3 1-715) (enzyme)”: the stoichiometry N in data set [2] turned out to be 10.

On to “LdcI R97E/R468E double mutant (from UniProt P0A9H3 1-715) (enzyme)”, for which the stoichiometry N in data set [3] is 10.

For “LdcI-Dendra2 T69A (C-terminal fluorescent protein fusion of LdcI) (from UniProt P0A9H3 1-715) (enzyme)”, the stoichiometry N in data set [4] came out at 10.

In the case of “LdcI-mGeosM (C-terminal fluorescent protein fusion of LdcI) (from UniProt P0A9H3 1-715) (enzyme)”, the stoichiometry N in data set [5] was 10.

B1: LdcI E445A/D447A double mutant (enzyme, E. coli)
chain: MNVIAILNHMGVYFKEEPIRELHRALERLNFQIVYPNDRDDLLKLIENNARLCGVIFDWDKYNLELCEEISKMNENLPLYAFANTYSTLDVSLNDLRLQISFFEYALGAAEDIANKIKQTTDEYINTILPPLTKALFKYVREGKYTFCTPGHMGGTAFQKSPVGSLFYDFFGPNTMKSDISISVSELGSLLDHSGPHKEAEQYIARVFNADRSYMVTNGTSTANKIVGMYSAPAGSTILIDRNCHKSLTHLMMMSDVTPIYFRPTRNAYGILGGIPQSEFQHATIAKRVKETPNATWPVHAVITNSTYDGLLYNTDFIKKTLDVKSIHFDSAWVPYTNFSPIYEGKCGMSGGRVEGKVIYETQSTHKLLAAFSQASMIHVKGDVNEETFNEAYMMHTTTSPHYGIVASTETAAAMMKGNAGKRLINGSIERAIKFRKEIKRLRTASAGWFFDVWQPDHIDTTECWPLRSDSTWHGFKNIDNEHMYLDPIKVTLLTPGMEKDGTMSDFGIPASIVAKYLDEHGIVVEKTGPYNLLFLFSIGIDKTKALSLLRALTDFKRAFDLNLRVKNMLPSLYREDPEFYENMRIQELAQNIHKLIVHHNLPDLMYRAFEVLPTMVMTPYAAFQKELHGMTEEVYLDEMVGRINANMILPYPPGVPLVMPGEMITEESRPVLEFLQMLCEIGAHYPGFETDIHGAYRQADGRYTVKVLKEESKK
In the case of B1, in “negative stain EM”, the binding result was “binds”.

B2: LdcI H694N (enzyme, E. coli)
chain: B1 chain with A445E, A447D, H694N
For B2, the binding result in “negative stain EM” is “binds”.

B3: LdcI R97E (enzyme, E. coli)
chain: B1 chain with R97E, A445E, A447D
For B3, in “negative stain EM”, the binding result is on record as “binds”.

B4: LdcI H694A (enzyme, E. coli)
chain: B1 chain with A445E, A447D, H694A
For the molecule B4, in the data set “negative stain EM”, the binding result is reported as “binds”.
